Reference: the supplement of paper PMC7877785
± gives the uncertainty stated by the source.

Experiment: self-splicing fitness, log relative to wild type (ln ratio); higher = more splicing; Tetrahymena group I intron in knt gene, E. coli kanamycin selection, DiMSum; sequences stand for … in CUCUCU…GGAGGGAAAAGUUAUCAGGCAUGCACCUGGUAGCUAGUCUUUAAACCAAUAGAUUGCAUCGGUUUAAAAGGCAAGACCGUCAAAUUGCGGGAAAGGGGUCAACAGCCGUUCAGUACCAAGUCUCAGGGGAAACUUUGAGAUGGCCUUGCAAAGGGUAUGGUAAUAAGCUGACGGACAUGGUCCUAACCACGCAGCCAAGUCCUAAGUCAACAGAUCUUCUGUUGAUAUGGAUGCAGUUCACAGACUAAAUGUCGGUCGGGGAAGAUGUAUUCUUCUCAUAAGAUAUAGUCGGACCUCUCCUUAAUGGGAGCUAGCGGAUGAAGUGAUGCAACACUGGAGCCGCUGGGAACUAAUUUGUAUGCGAAAGUAUAUUGAUUAGUUUUGGAGUACUCGUGGUCG
In short: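 A randomised library covering all eight P1ex-region intron nucleotides was built with the intron in the knt kanamycin-resistance gene on pET-22b(+) and held in E. coli BL21(DE3). Cells were grown overnight at 37°C or 30°C on LB agar, with or without 25 μg/mL kanamycin, plus 100 μg/mL carbenicillin, 50 μM IPTG and 0.2% rhamnose, and pooled colonies were amplicon-sequenced on an Illumina HiSeq 2500. DiMSum fitness is the error-weighted combination of wild-type-normalised replicate fold changes, kanamycin versus none.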

Sequence: AAUGAGCAAUAUUACGUCAG
- self-splicing fitness (ln) (30 °C): -1.81 ± 0.45
- self-splicing fitness (ln) (37 °C): -2.32 ± 0.42

Sequence: AAUGAGCAAUAUUACGUCAU
- self-splicing fitness (ln) (30 °C): -2.26 ± 0.2
- self-splicing fitness (ln) (37 °C): -1.02 ± 0.18

Sequence: AAUGAGCAAUAUUACGUCGU
- self-splicing fitness (ln) (30 °C): -2.77 ± 0.082
- self-splicing fitness (ln) (37 °C): -1.18 ± 0.086

Sequence: AAUGAGCAAUAUUACGUGCG
- self-splicing fitness (ln) (30 °C): -2 ± 0.15
- self-splicing fitness (ln) (37 °C): -1.99 ± 0.3

Sequence: AAUGAGCAAUAUUACGUUGC
- self-splicing fitness (ln) (30 °C): -4.6 ± 0.45
- self-splicing fitness (ln) (37 °C): -2.78 ± 0.29

Sequence: AAUUAGCAAUAUUACGAAUU
- self-splicing fitness (ln) (30 °C): -2.7 ± 0.15
- self-splicing fitness (ln) (37 °C): -1.1 ± 0.13

Sequence: AAUUAGCAAUAUUACGAGUC
- self-splicing fitness (ln) (37 °C): -1.9 ± 0.36

Sequence: AAUUAGCAAUAUUACGAUUG
- self-splicing fitness (ln) (30 °C): -2.58 ± 0.2
- self-splicing fitness (ln) (37 °C): -1.14 ± 0.22

Sequence: AAUUAGCAAUAUUACGCAAC
- self-splicing fitness (ln) (30 °C): -3 ± 0.4
- self-splicing fitness (ln) (37 °C): -1.93 ± 0.24

Sequence: AAUUAGCAAUAUUACGCAUA
- self-splicing fitness (ln) (30 °C): -1.59 ± 0.15
- self-splicing fitness (ln) (37 °C): -2.07 ± 0.15

Sequence: AAUUAGCAAUAUUACGCCAU
- self-splicing fitness (ln) (30 °C): -2.49 ± 0.19
- self-splicing fitness (ln) (37 °C): -1.04 ± 0.16

Sequence: AAUUAGCAAUAUUACGCGAC
- self-splicing fitness (ln) (30 °C): -2.66 ± 0.21
- self-splicing fitness (ln) (37 °C): -1.61 ± 0.24

Sequence: AAUUAGCAAUAUUACGCGUC
- self-splicing fitness (ln) (30 °C): -2.69 ± 0.16
- self-splicing fitness (ln) (37 °C): -1.1 ± 0.14

Sequence: AAUUAGCAAUAUUACGGCCG
- self-splicing fitness (ln) (30 °C): -0.532 ± 0.18
- self-splicing fitness (ln) (37 °C): 0.571 ± 0.28

Sequence: AAUUAGCAAUAUUACGGCGU
- self-splicing fitness (ln) (30 °C): -0.085 ± 0.076
- self-splicing fitness (ln) (37 °C): 0.168 ± 0.1

Sequence: AAUUAGCAAUAUUACGGGAU
- self-splicing fitness (ln) (30 °C): -2.28 ± 0.22
- self-splicing fitness (ln) (37 °C): -1.37 ± 0.2

Sequence: AAUUAGCAAUAUUACGGGCA
- self-splicing fitness (ln) (30 °C): -0.73 ± 0.14
- self-splicing fitness (ln) (37 °C): 0.186 ± 0.11

Sequence: AAUUAGCAAUAUUACGUCAA
- self-splicing fitness (ln) (30 °C): -2.11 ± 0.17
- self-splicing fitness (ln) (37 °C): -0.791 ± 0.22

Sequence: AAUUAGCAAUAUUACGUCUG
- self-splicing fitness (ln) (30 °C): -1.72 ± 0.15
- self-splicing fitness (ln) (37 °C): -0.251 ± 0.17

Sequence: AAUUAGCAAUAUUACGUUAA
- self-splicing fitness (ln) (30 °C): -1.19 ± 0.12
- self-splicing fitness (ln) (37 °C): -0.801 ± 0.17

Sequence: AAUUAGCAAUAUUACGUUCU
- self-splicing fitness (ln) (30 °C): -0.609 ± 0.077
- self-splicing fitness (ln) (37 °C): -0.522 ± 0.099

Sequence: AAUUAGCAAUAUUACGUUUA
- self-splicing fitness (ln) (30 °C): -1.6 ± 0.12
- self-splicing fitness (ln) (37 °C): -0.975 ± 0.12

Sequence: ACAAAGCAAUAUUACGAAAA
- self-splicing fitness (ln) (30 °C): -2.93 ± 0.25
- self-splicing fitness (ln) (37 °C): -2.42 ± 0.27

Sequence: ACAAAGCAAUAUUACGAAAG
- self-splicing fitness (ln) (30 °C): -1.59 ± 0.12
- self-splicing fitness (ln) (37 °C): -1.32 ± 0.14

Sequence: ACAAAGCAAUAUUACGAAGA
- self-splicing fitness (ln) (30 °C): -3.03 ± 0.42
- self-splicing fitness (ln) (37 °C): -0.86 ± 0.18

Sequence: ACAAAGCAAUAUUACGACUG
- self-splicing fitness (ln) (30 °C): -0.48 ± 0.06
- self-splicing fitness (ln) (37 °C): -0.066 ± 0.09

Sequence: ACAAAGCAAUAUUACGAGAA
- self-splicing fitness (ln) (30 °C): -2.54 ± 0.28
- self-splicing fitness (ln) (37 °C): -2.87 ± 0.35

Sequence: ACAAAGCAAUAUUACGAGAC
- self-splicing fitness (ln) (30 °C): -3.61 ± 0.21
- self-splicing fitness (ln) (37 °C): -2.57 ± 0.2

Sequence: ACAAAGCAAUAUUACGAGUG
- self-splicing fitness (ln) (30 °C): -1.37 ± 0.068
- self-splicing fitness (ln) (37 °C): -0.772 ± 0.081

Sequence: ACAAAGCAAUAUUACGCAGU
- self-splicing fitness (ln) (30 °C): -3.46 ± 0.2
- self-splicing fitness (ln) (37 °C): -2.78 ± 0.21

Sequence: ACAAAGCAAUAUUACGCGAC
- self-splicing fitness (ln) (30 °C): -2.02 ± 0.11
- self-splicing fitness (ln) (37 °C): -1.16 ± 0.12

Sequence: ACAAAGCAAUAUUACGCUAA
- self-splicing fitness (ln) (30 °C): -2.51 ± 0.13
- self-splicing fitness (ln) (37 °C): -1.14 ± 0.086

Sequence: ACAAAGCAAUAUUACGCUGA
- self-splicing fitness (ln) (30 °C): -2.65 ± 0.2
- self-splicing fitness (ln) (37 °C): -1.14 ± 0.15
